Assay [1] addresses PfActin-1 filaments (Plasmodium falciparum) (UniProt Q8I4X0).
Assay [2] has as its target rabbit skeletal actin filaments (rabbit) (UniProt P68135).
Assay [3] addresses smooth muscle actin filaments (UniProt P62736).

Chain of Full-length phosphorylated smooth muscle myosin (P10587 whole entry, looked up): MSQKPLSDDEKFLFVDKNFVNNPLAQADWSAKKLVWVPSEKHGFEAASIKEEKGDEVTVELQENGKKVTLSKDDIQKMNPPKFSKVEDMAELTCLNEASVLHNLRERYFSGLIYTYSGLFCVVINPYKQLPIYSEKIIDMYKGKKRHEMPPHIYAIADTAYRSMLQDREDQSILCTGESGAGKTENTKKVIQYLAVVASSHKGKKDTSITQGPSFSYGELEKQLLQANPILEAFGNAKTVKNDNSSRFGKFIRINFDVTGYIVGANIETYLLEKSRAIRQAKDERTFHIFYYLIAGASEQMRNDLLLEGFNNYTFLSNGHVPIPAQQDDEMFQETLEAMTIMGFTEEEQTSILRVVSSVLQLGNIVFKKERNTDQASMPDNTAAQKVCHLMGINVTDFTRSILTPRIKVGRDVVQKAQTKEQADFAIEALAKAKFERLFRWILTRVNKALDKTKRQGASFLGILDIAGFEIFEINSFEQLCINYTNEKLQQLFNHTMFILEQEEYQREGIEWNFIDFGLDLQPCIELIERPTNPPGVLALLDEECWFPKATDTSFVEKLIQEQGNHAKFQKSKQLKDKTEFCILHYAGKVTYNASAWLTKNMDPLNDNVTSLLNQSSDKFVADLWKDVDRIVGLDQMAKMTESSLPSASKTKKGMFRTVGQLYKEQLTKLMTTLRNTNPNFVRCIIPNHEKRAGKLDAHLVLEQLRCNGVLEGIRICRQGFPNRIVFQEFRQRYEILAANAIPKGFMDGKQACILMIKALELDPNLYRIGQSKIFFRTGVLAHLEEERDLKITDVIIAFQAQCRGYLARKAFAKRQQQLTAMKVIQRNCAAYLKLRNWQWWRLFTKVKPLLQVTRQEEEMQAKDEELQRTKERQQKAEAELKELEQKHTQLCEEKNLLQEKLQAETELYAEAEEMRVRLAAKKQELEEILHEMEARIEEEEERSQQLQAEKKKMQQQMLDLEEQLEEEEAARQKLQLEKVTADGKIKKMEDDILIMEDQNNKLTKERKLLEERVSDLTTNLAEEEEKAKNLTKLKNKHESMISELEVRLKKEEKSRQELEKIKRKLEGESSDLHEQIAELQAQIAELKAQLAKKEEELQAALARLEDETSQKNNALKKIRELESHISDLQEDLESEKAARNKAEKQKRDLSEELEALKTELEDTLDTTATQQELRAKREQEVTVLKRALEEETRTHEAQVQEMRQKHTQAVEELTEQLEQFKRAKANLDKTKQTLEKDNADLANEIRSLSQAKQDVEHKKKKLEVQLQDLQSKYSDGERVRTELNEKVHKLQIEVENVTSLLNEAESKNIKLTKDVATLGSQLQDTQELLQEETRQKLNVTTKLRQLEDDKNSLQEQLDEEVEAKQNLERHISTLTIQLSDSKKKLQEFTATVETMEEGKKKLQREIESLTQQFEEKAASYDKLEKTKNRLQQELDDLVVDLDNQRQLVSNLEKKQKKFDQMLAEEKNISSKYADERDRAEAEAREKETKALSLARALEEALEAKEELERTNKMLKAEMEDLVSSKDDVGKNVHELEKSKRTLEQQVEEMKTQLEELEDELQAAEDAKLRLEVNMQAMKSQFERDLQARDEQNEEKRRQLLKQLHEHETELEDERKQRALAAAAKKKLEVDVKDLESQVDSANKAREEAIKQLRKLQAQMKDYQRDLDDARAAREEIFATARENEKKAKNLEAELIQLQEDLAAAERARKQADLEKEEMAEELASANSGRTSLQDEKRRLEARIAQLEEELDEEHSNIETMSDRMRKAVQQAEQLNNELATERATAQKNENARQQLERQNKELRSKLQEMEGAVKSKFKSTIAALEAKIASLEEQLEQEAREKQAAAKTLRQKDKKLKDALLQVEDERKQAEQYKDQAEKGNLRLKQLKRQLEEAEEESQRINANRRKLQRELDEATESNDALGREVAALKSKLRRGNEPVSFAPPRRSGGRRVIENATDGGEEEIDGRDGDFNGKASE

“Full-length phosphorylated smooth muscle myosin (from UniProt P10587 1-1979) (complex)”: in assay [1], the in vitro motility speed, JAS-stabilized PfAct1 filaments moved by myosin adhered to the coverslip, 30 °C was 0.53 µm/s. The same substance returned an in vitro motility speed, skeletal muscle actin filaments moved by myosin adhered to the coverslip, 30 °C in assay [2] of 0.62 µm/s. In assay [3], this substance returned an in vitro motility speed, smooth muscle actin filaments moved by myosin adhered to the coverslip, 30 °C of 0.51 µm/s.

Take “PfMyoA with a C-terminal biotin tag (from UniProt Q8IDR3 1-818) (complex)”: in assay [1], the in vitro motility speed, JAS-stabilized PfAct1 filaments moved by myosin held on the coverslip, 30 °C is 3.55 µm/s and the in vitro motility speed, unstabilized PfAct1 filaments (no JAS) moved by myosin held on the coverslip, 30 °C came to 3.98 µm/s. This substance displayed an in vitro motility speed, skeletal muscle actin filaments moved by myosin held on the coverslip, 30 °C in assay [2] of 3.85 µm/s. The substance further came in with an in vitro motility speed, smooth muscle actin filaments moved by myosin held on the coverslip, 30 °C in assay [3] of 4.21 µm/s.
